These results are taken from patent publication US20210275684A1 (MONOJUL, published 2021).

To fix the notation:
B1: AS04498 antibody (affinity matured, full length IgG) (antibody, V domains shown)
VH: EVQLVQSGAEVKKPGASVKVSCKASGYTFTYYAMHWVRQAPGQRLEWMGWINAGNGNTKYSQKFQGRVTITRDTSASTAYMELSSLRSEDTAVYYCARDISYGSFDYWGQGTLVTVSS
VL: SSELTQDPAVSVALGQTVRITCQGDSLRSNYANWYQQKPGQAPVLVIYGQFNRPSGIPDRFSGSSSGNTASLTITGAQAADEADYYCDSRVSTGIHVVFGGGTKLTVLG
notes: also called ASO4498; AM
B2: M909 IgG (parent monoclonal antibody m909, full length IgG) (antibody, V domains shown, not shown: a dimerising Fc or GST)
VH: B1 VH with Y31S
VL: B1 VL with F51N, I95N
notes: also called m909 antibody
B3: Clone C (affinity matured antibody from the combinatorial library) (Fab, V domains shown)
VH: B1 VH with N57F
VL: B1 VL
notes: Format in the screen not expressly stated
B4: Clone P (affinity matured antibody from the combinatorial library) (Fab, V domains shown)
VH: B1 VH with Y31I, N57F
VL: B1 VL with F51N, I95N
notes: as for B3
B5: Clone O (affinity matured antibody from the combinatorial library) (Fab, V domains shown)
VH: B1 VH
VL: B1 VL with F51N, R53L, I95N
notes: as for B3
B6: Clone M (affinity matured antibody from the combinatorial library) (Fab, V domains shown)
VH: B1 VH with Y31I
VL: B1 VL with R53L, I95N
notes: as for B3
B7: Clone H (affinity matured antibody from the combinatorial library) (Fab, V domains shown)
VH: B1 VH with Y31I
VL: B1 VL
notes: as for B3
B8: Clone B (affinity matured antibody from the combinatorial library) (Fab, V domains shown)
VH: B1 VH with A16V, N57F
VL: B1 VL with R53L
notes: A16V was placed on the heavy chain; Format in the screen not expressly stated
B9: Clone G (affinity matured antibody from the combinatorial library) (Fab, V domains shown)
VH: B1 VH with Y31I
VL: B1 VL with R53L
notes: as for B3
B10: Clone D (affinity matured antibody from the combinatorial library) (Fab, V domains shown)
VH: B1 VH
VL: B1 VL with R53L
notes: as for B3
B11: Clone I (affinity matured antibody from the combinatorial library) (Fab, V domains shown)
VH: B1 VH with Y31I
VL: B1 VL with F51N, R53L
notes: as for B3
B12: Clone J (affinity matured antibody from the combinatorial library) (Fab, V domains shown)
VH: B1 VH with N57F
VL: B1 VL with F51N
notes: as for B3
B13: Clone L (affinity matured antibody from the combinatorial library) (Fab, V domains shown)
VH: B1 VH with Y31I
VL: B1 VL with I95N
notes: as for B3
B14: Clone A (affinity matured antibody from the combinatorial library) (Fab, V domains shown)
VH: B1 VH with N57F
VL: B1 VL with R53L
notes: as for B3
B15: Clone F (affinity matured antibody from the combinatorial library) (Fab, V domains shown)
VH: B1 VH
VL: B1 VL with R53L, I95N
notes: as for B3

Substitutions are numbered along the chain they refer to. Names may count otherwise.

One experiment deals with T1, recombinant human folate receptor beta (FRβ), residues 22 to 236, with ADPG at the N-terminus and five … (human, UniProt P14207 22-236).
T1 construct: also called hFRβ; recombinant FRβ
T1 sequence (P14207 other isoform, or with tags, fused parts or gaps): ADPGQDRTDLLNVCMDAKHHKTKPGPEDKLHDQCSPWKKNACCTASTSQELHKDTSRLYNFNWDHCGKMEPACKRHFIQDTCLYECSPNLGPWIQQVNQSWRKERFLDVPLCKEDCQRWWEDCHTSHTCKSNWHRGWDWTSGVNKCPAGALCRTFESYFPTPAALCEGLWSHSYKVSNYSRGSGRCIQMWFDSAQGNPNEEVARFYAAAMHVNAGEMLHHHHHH
In words: SPR, Biacore T200, antibody captured through Fc, hFRβ as analyte. The method, then: (§1) To begin the analysis of the affinity matured antibodies, AS04498 was selected for further analysis. Antibody affinity to antigen protein was determined using a Surface Plasmon Resonance (SPR) biosensor, Biacore T200 (GE Healthcare). Antibody was immobilized on the sensor chip through Fc capture method. Antigen protein was used as the analyte. The data of dissociation (kd) and association (k0) rate constants were obtained using Biacore T200 evaluation software. The equilibrium dissociation constants (KD) were calculated from the ratio of kd over k0.
With B1, the equilibrium dissociation constant (Kd) was determined as 2.5 nM, the koff turned out to be 0.000144 s⁻¹ and the on-rate constant (kon) worked out at 57700 M⁻¹ s⁻¹.

For the molecule B2, the Kd turned out to be 92.4 nM, the dissociation rate constant (koff) amounted to 0.00592 s⁻¹ and the on-rate constant (kon) is 64100 M⁻¹ s⁻¹.

The next experiment addresses T1, recombinant human folate receptor beta …. In words: SPR, Biacore T200; affinity relative to the chimeric IgG control. The method, then:
as §1
For B1, the “Fold Increase” value was 38 fold.

The target is the same in a further experiment. Description: affinity measurement of full length IgG on recombinant FRβ (FIGS. 6A-6C, summarised in Table 5); reference: Chimeric IgG. The sentence says 'higher' of the KD, but the KD is lower, so the affinity is higher. The method, then:
as §1
Regarding B1, the “fold change of KD against the chimeric IgG control” value was found to be 38 fold.

Another experiment shares this target. In words: combinatorial library screen: ELISA on coated antigen, then affinity (dissociation rate) ranking.
Regarding B3, the binding result was “binds”.

Regarding B4, the binding result is recorded as “binds”.

Take B5: the binding result is “binds”.

For B6, the binding result is recorded as “binds”.

Turning to B7, the binding result is reported as “binds”.

Take B8: the binding result is reported as “binds”.

Consider B9, for which the binding result was “binds”.

On to B10, for which the binding result is recorded as “binds”.

B11: the binding result was “binds”.

Regarding B12, the binding result is “binds”.

On to B13, for which the binding result is given as “binds”.

Take B14: the binding result is on record as “binds”.

On to B15, for which the binding result is recorded as “binds”.
